Measured values published in FireProtDB (doi:10.1021/bi00231a002).

Details: Rhodobacter capsulatus (strain ATCC BAA-309 / NBRC 16581 / SB1003); pH 7.5; 20 °C; GdnHCl; CD; Tris-HCl 20 mM; NaCl 40 mM; whole UniProt chain shown

B1: Cytochrome c2 wild type, P00094 (protein)
chain: MKISLTAATVAALVLAAPAFAGDAAKGEKEFNKCKTCHSIIAPDGTEIVKGAKTGPNLYGVVGRTAGTYPEFKYKDSIVALGASGFAWTEEDIATYVKDPGAFLKEKLDDKKAKTGMAFKLAKGGEDVAAYLASVVK
  denaturant m value: 1.65 kcal/mol/M
  denaturant midpoint (higher = more stable): 4.51 M
  unfolding free energy: 7.45 kcal/mol
